Tests used:
[1] = system: TGFB1 reporter cell line (Mink Lung Epithelium Cells, PAI-1 promoter luciferase); assay: Luciferase assay in TGFB1 reporter cell line; format: cell-based; parameters: dose or concentration left out as unconfirmed; conditions: cells on films with immobilized hTGFB1
Description: MLECs were seeded at 64000 cells/cm^2 and allowed to attach overnight at 37° C. in a 5% CO2 incubator. The medium was then replaced by DMEM without FBS and cells incubated for an additional period of 24 hours. Cells were lysed and the luciferase quantified according to the manufacturer's protocol (Promega, E4530). Luciferase values were normalized for DNA content quantified by CyQuant Cell proliferation assay (Invitrogen).

[2] = system: HUVECs; assay: Cell survival of HUVECs after starvation; format: cell-based, human; conditions: 20 ng/mL hVEGF in medium during 24 hours starvation; versus native films without hVEGF
Description: Samples were incubated with 1 μg/mL of VEGF (PeproTech) in 0.5% (v/v) PBS TWEEN®20 (PBST) for one hour with gentle agitation. The films were then washed three times for 10 minutes with 0.5% (v/v) PBST and then with PBS for a further 10 minutes. Next, the films were blocked for one hour with PBS containing 1% (w/v) bovine serum albumin (BSA) and subsequently washed as described above. Afterwards, the films were incubated with a primary antibody (2 μg/mL; rabbit polyclonal anti-human VEGF, PeproTech) in the blocking solution during one hour with agitation. The films were washed as mentioned above and then incubated with a secondary antibody (8 μg/mL; goat anti-rabbit ALEXA FLUOR® 594, Invitrogen) in PBS containing 1% w/v BSA for one hour with gentle agitation. Before image acquisition, the films were washed three times for 10 minutes with […], rinsed three times with PBS and dried under a N2 stream. Fluorescence intensity was quantified using ImageJ. […]
HUVECs at passage 4 were used for experiments. […] Once detached, fresh medium was added to neutralize the trypsin and the cells were counted. […] After 24 hours, the cells were lysed and the DNA content was quantified by CyQUANT cell proliferation assay (Invitrogen), following the manufacturer's instructions.

[3] = system: BMP-2 reporter cell line (C2C12 Luc, ID1 promoter luciferase); assay: Luciferase assay in BMP-2 reporter cell line; format: cell-based; conditions: 2 ng/mL inhibitor; response to immobilized hBMP-2
Description: For cell experiments, the sterile films were washed three times with PBS and incubated with concentrated hBMP-2 in PBS for one hour with gentle agitation. Subsequently, the films were extensively washed with TBST (0.5%) and PBS to remove any traces of the washing buffer prior to cell seeding.
C2C12 Luc express luciferase under the control of a ID1 promoter—a BMP-2 target gene (Zilberberg et al., 2007, BMC Cell Biol. 8(41). DOI: 10.1186/1471-2121-8-41).
C2C12 Luc were seeded on films at 16,000 cells/cm2 in DMEM medium supplemented with 10% FBS and allowed to attach overnight at 37° C. in a 5% CO2 incubator. The cells were lysed the following day and the luciferase quantified according to the manufacturer's protocol (Promega, E4530). Luciferase values were normalized for DNA content quantified by CyQUANT cell proliferation assay (Invitrogen).

Cc1cccc(-c2[nH]c(C(C)(C)C)nc2-c2ccc3c(c2)OCO3)n1.Cl [SB-431452, 2-(5-benzo[1,3]dioxol-5-yl-2-tert-butyl-3H-imidazol-4-yl)-6-methylpyridine hydrochloride]
luciferase activity in presence of TGF-β1 inhibitor [1]: completely suppressed

B1: soluble VEGF: soluble hVEGF added to the medium during starvation (protein)
chain: APMAEGGGQNHHEVVKFMDVYQRSYCHPIETLVDIFQEYPDEIEYIFKPSCVPLMRCGGCCNDEGLECVPTEESNITMQIMRIKPHQGQHIGEMSFLQHNKCECRPKKDRARQENPCGPCSERRKHLFVQDPQTCKCSCKNTDSRCKARQLELNERTCRCDKPRR
survival of HUVECs (total amount of DNA) with soluble VEGF [2]: significant increase in the amount of DNA

B2: Noggin: specific BMP-2 inhibitor (protein, UniProt Q13253 28-232, looked up)
Noggin: QHYLHIRPAPSDNLPLVDLIEHPDPIFDPKEKDLNETLLRSLLGGHYDPGFMATSPPEDRPGGGGGAAGGAEDLAELDQLLRQRPSGAMPSEIKGLEFSEGLAQGKKQRLSKKLRRKLQMWLWSQTFCPVLYAWNDLGSRFWPRYVKVGSCFSKRSCSVPEGMVCKPSKSVHLTVLRWRCQRRGGQRCGWIPIQYPIISECKCSC
luciferase activity in presence of BMP-2 inhibitor [3]: completely suppressed

Source: patent US12275803B2, “Functionalization of biopolymers with growth factor-binding peptides” (Universiteit Twente, priority 2016, dated 2025)
